This note sets out measurements from PMC8449409 (2021).

A value given as a limit tells only on which side of the number the result lay.

The target in the assay is T1, β-catenin (Mus musculus, UniProt Q02248).
T1 chain: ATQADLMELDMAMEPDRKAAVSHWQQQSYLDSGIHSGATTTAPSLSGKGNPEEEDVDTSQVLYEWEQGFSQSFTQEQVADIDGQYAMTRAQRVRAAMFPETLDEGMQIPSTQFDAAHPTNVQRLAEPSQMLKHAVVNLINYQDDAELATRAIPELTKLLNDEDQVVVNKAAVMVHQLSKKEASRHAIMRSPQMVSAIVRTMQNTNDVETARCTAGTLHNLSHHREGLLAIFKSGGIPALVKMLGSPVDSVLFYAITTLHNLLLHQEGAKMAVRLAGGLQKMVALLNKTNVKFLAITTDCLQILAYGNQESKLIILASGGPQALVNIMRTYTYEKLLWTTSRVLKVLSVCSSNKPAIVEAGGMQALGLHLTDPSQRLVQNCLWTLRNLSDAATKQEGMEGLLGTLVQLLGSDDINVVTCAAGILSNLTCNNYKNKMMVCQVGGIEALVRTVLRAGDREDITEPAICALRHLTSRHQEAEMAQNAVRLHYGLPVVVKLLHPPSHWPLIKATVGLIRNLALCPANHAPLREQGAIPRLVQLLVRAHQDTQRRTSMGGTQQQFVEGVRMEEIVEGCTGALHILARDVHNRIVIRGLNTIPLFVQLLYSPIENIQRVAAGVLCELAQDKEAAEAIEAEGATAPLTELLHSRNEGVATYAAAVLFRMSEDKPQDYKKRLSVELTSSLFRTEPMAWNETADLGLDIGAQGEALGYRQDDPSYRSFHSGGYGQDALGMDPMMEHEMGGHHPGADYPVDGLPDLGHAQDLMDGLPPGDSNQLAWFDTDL

B1: E-cadherin core-binding peptide core-binding region (20 aa) (peptide)
chain: DPTAPPYDSLLVFDYEGSGS
On to B1, for which the dissociation constant (Kd) is > 1 µM.
